Experimental data taken from article PMC5673899, “Structural basis for receptor recognition of pollen tube attraction peptides” (Nature Communications, 2017).
Entries after “also recorded” stand apart in the source; their conditions may differ.

Columns and labels:
[1] = tested on: AtPRK^LRR proteins other than AtPRK6^LRR; test: In vitro pull-down with other AtPRK^LRR proteins; assay type: binding, Arabidopsis; conditions: Ni-NTA, excess AtLURE1.2, on ice 30 min, washed five times; SDS-PAGE, Coomassie blue
Source text: The genes of AtPRK3 ^LRR (residues 1–241), AtPRK4 ^LRR (residues 1–277), AtPRK5 ^LRR (residues 1–279), AtPRK6 ^LRR (residues 1–262), MIK1 ^LRR (residues 1–633), MIK2 ^LRR (residues 1–707) were amplified from Arabidopsis cDNA library by PCR and cloned into pFastBac-1 vector with a C-terminal 6 × His-tag. Their identities were confirmed by sequencing. The mature form of AtLURE1.1 (residues 20–94), AtLURE1.2 (residues 20–90), AtLURE1.3 (residues 21–91), and AtLURE1.4 (residues 20–90) were cloned into pFastBac-1 vector, with a modified N-terminal hemolin signal peptide and 6 × His-SUMO tag. Point mutation constructs were generated by QuickChange Site-Directed Mutagenesis Kit (Strategene). All the proteins were expressed using the Bac-to-Bac baculovirus expression system (Invitrogen) in High Five cells at 22 °C. One liter of High Five cells (2.0 × 10^6 cells mL^−1) cultured in the medium from Expression Systems was infected with 25 ml recombinant baculovirus and the media was collected after 72 h of infection. Secreted LRR proteins were purified using Ni-NTA (Novagen) and size-exclusion chromatography (Hiload 200, GE Healthcare) in buffer containing 10 mM Bis-Tris pH 6.0 and 100 mM NaCl. […]
The purified His-tagged ectodomains of AtPRK proteins and MIK1, 2 were used to pull-down the AtLURE1.2 peptide. […] All the eluted samples were analyzed by SDS-PAGE and visualized by Coomassie blue staining. […]

[2] = tested on: prk6 pollen tubes transformed with PRK6 ΔN239I240; test: Wavy assay, prk6 pollen tubes transformed with ΔN239I240 PRK6; assay type: cell-based, Arabidopsis; conditions: 250 nM wild-type AtLURE1.2 in medium
Protocol: (§1) Attraction activities of mutant AtLURE1.2 peptides were examined for semi-in-vivo pollen tubes growing through cut, pollinated pistils by gelatin-beads assay and wavy assay, [20]. For the gelatin-beads assay, pollen tubes were grown on solid pollen germination medium poured into a mold made with 1-mm thick silicone rubber and cover glasses. After hand-pollination, the topside cover glass was removed and the medium was covered with hydrated silicone oil (KF-96–100CS; Shin-Etsu). Attraction of pollen tubes toward the peptide was evaluated using AtLURE1 peptide containing gelatine beads under an inverted microscope (IX71, Olympus) equipped with a micro-manipulator (Narishige). For the AtLURE1-responsive wavy assay, the purified AtLURE1.2 peptide was added to solid pollen germination medium, which was melted at 70 °C and then cooled to a certain degree. The mixture was mixed by vortexing and poured into the mold. Pollen tubes of each genotype were grown through cut styles, as mentioned above. Each peptide (25 μM in 10 mM Bis-Tris (pH 6.0) and 100 mM NaCl) was diluted to 250 nM by cultivation medium in both assays. […]
(§2) pollen tubes. Fluorescence is from mRuby2 fused to the C-terminal of PRK6 receptors, showing that all of mutant PRK6 receptors localize normally to the plasma membrane of the pollen tube tip. […]

MIK1 = conditions: cited from earlier work
Source text: More recently, progress has been made in the identification of sensory receptors for external cues during pollen tube guidance, [18]. Through genetic screening, two research groups identified different pollen tube specific receptor kinases (RKs) which can function as the receptors of AtLURE1 (refs. [19], [20]). […] By contrast, our data ... || page 2: co-receptor in the signaling system. Typos : - line 167 : Lue242 instead of Leu242 Reviewer #3 (Remarks to the Author): The Zhang et al. manuscript is a continuation of the study of pollen tube guidance to its female target to deliver sperm for fertilization, starting almost twenty years ago by the Higashiyama group, which recently reported a number of pollen receptor kinases (PRKs) as receptors for the attractant LURE1(- 2) from Arabidopsis. The Zhang et al study here caps it by elucidating the structure of LURE1-PRK6 on the atomic level. In principle, the study is an imminently publi ...

[3] = tested on: semi-in-vivo pollen tubes (wild type); test: AtLURE-responsive wavy assay, wild-type pollen tubes; assay type: cell-based, Arabidopsis; conditions: 250 nM peptide in solid pollen germination medium
Protocol: as §1, §2

[4] = tested on: semi-in-vivo pollen tubes; test: Gelatin-beads assay, wild-type semi-in-vivo pollen tubes; assay type: cell-based, Arabidopsis; conditions: gelatin beads containing 250 nM peptide
Protocol: Attraction activities of mutant AtLURE1.2 peptides were examined for semi-in-vivo pollen tubes growing through cut, pollinated pistils by gelatin-beads assay and wavy assay, [20]. For the gelatin-beads assay, pollen tubes were grown on solid pollen germination medium poured into a mold made with 1-mm thick silicone rubber and cover glasses. After hand-pollination, the topside cover glass was removed and the medium was covered with hydrated silicone oil (KF-96–100CS; Shin-Etsu). Attraction of pollen tubes toward the peptide was evaluated using AtLURE1 peptide containing gelatine beads under an inverted microscope (IX71, Olympus) equipped with a micro-manipulator (Narishige). For the AtLURE1-responsive wavy assay, the purified AtLURE1.2 peptide was added to solid pollen germination medium, which was melted at 70 °C and then cooled to a certain degree. The mixture was mixed by vortexing and poured into the mold. Pollen tubes of each genotype were grown through cut styles, as mentioned above. Each peptide (25 μM in 10 mM Bis-Tris (pH 6.0) and 100 mM NaCl) was diluted to 250 nM by cultivation medium in both assays. To examine reactivity of PRK6 mutants to AtLURE1.2, constructs for PRK6 mutants, D234A, N239A, and ΔN239I240, were generated by site-directed mutagenesis from a wild-type PRK6 vector, pPZP221-pPRK6::PRK6-mRuby2 (ref. [20]). Wild-type and mutant PRK6 constructs were introduced into prk6–1 plant. After transformants were selected by the same criteria as previously, beads assay and wavy assay were performed in several T1 lines and single T2 line, respectively, for each genotype using 250 nM wild-type AtLURE1.2 peptide.

B1: AtLURE1.2: mature form of AtLURE1.2 (residues 20–90), defensin-like cysteine-rich peptide expressed in insect cells (protein)
chain: TLINGSSDEERTYSFSPTTSPFDPRSLNQELKIGRIGYCFDCARACMRRGKYIRTCSFERKLCRCSISDIK
modifications: left off: His6, N-terminal, cleaved | SUMO, N-terminal, cleaved
notes: mature form of AtLURE1.2 (residues 20–90), defensin-like cysteine-rich peptide expressed in insect cells
- interaction in pull-down assay [1]: none of the other LRR proteins was found to interact
- wavy and branched pollen tube behavior [2]: branched behavior is not observed; also recorded: greatly compromised
- binding to MIK1 (MIK1): directly binds
- wavy pollen tube response [3]: caused pollen tube wavy response
- pollen tube attraction activity (in words) ([4]; Tukey−Kramer test, P < 0.05): efficiently attracted pollen tubes
- attraction frequency of pollen tubes ([4]; mean ± SD, 9–16 pollen tubes per assay, 3−5 assays): 94 ± 7%
